Results on four molecules are retold here after patent publication US20140242080A1 (Hoffmann-La Roche, published 2014).

Broadly, the EC50 is the concentration giving half of the maximal effect. A lower EC50 goes with an effect from little substance.

In experiment [1] the target is T1, hu-MCSP(D3 domain)-avi-his (human, UniProt Q6UVK1 1582-2224).
T1 construct: Recombinant D3 domain with avi and his tags; also called human MCSP(D3 domain)-avi-his; Human MCSP D3
T1 sequence: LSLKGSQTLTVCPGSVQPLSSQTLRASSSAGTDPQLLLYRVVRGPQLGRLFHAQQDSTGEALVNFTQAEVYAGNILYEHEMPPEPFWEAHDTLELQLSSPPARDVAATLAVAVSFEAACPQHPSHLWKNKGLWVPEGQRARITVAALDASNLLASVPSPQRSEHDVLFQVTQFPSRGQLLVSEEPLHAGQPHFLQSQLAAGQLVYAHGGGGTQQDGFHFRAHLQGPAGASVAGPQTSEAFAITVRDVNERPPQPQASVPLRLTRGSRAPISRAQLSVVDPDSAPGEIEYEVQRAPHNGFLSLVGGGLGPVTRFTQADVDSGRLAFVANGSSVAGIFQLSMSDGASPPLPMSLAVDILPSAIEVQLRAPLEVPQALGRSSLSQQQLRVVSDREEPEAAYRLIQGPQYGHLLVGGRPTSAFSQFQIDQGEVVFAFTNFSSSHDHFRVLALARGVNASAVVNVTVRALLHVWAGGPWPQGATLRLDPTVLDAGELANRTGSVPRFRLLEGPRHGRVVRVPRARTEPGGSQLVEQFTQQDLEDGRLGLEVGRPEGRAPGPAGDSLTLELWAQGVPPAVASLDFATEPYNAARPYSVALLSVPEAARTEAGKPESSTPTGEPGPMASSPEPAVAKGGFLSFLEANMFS
Briefly: ratio of ProteOn IgG KD, parent M4-3/ML2 against variant.

Experiment [2] deals with T2, cynomolgus MCSP D3 (cynomolgus, UniProt Q6UVK1 1582-2224 (human entry), limits assumed).
T2 construct: also called Cyno MCSP; cynomolgus homologue
T2 chain: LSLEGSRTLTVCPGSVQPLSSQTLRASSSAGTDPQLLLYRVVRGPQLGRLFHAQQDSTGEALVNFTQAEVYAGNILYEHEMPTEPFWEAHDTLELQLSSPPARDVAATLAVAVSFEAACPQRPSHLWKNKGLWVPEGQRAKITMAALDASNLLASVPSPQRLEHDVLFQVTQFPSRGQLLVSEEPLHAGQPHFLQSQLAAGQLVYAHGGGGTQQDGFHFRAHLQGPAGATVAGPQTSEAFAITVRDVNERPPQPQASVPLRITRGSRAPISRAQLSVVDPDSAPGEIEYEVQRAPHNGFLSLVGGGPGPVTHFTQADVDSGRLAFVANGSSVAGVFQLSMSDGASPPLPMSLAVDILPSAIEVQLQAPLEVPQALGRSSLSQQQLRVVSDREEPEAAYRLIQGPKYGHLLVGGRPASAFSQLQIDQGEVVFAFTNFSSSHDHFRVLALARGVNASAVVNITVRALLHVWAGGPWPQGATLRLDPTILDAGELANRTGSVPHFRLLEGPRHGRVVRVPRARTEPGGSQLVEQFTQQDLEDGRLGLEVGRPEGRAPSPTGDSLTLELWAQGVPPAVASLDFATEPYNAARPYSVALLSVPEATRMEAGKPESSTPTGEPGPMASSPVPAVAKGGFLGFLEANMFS
Described as above.

Experiment [3] addresses T1, hu-MCSP(D3 domain)-avi-his. Briefly: SPR Biacore T200, 25 C; affinity: IgG captured via anti-human Fc, MCSP D3 as analyte. Here is the method:
(§1) For analyzing the avidity of the interaction of different anti-MCSP IgGs to human and cynomolgus MCSP D3 direct coupling of around 9,500 resonance units (RU) of the anti-Penta His antibody (Qiagen) was performed on a CM5 chip at pH 5.0 using the standard amine coupling kit (Biacore, Freiburg/Germany). Antigens were captured for 60 s at 30 nM with 10 μl/min respectively. IgGs were passed at a concentration of 0.0064-100 nM with a flowrate of 30 μl/min through the flow cells over 280 s. The dissociation was monitored for 180 s. Bulk refractive index differences were corrected for by subtracting the response obtained on reference flow cell. […] For affinity measurements IgGs were captured on a CM5 sensorchip surface with immobilized anti human Fc. Capture IgG was coupled to the sensorchip surface by direct immobilization of around 9,500 resonance units (RU) at pH 5.0 using the standard amine coupling kit (Biacore, Freiburg/Germany). IgGs are captured for 25 s at 10 nM with 30 μl/min. Human and cynomolgus MCSP D3 were passed at a concentration of 2-500 nM with a flowrate of 30 μl/min through the flow cells over 120 s. The dissociation was monitored for 60 s. […] Bulk refractive index differences were corrected for by subtracting the response obtained on reference flow cell.
Background: In SPR one partner is held on a chip, and binding of the other changes the refractive index at the surface.

The target in experiment [4] is T2, cynomolgus MCSP D3. The description is as above. Here is the method: as §1
Experiment [5] addresses T1, hu-MCSP(D3 domain)-avi-his. Briefly: SPR ProteOn XPR36, 25 C; IgG captured via anti-human F(ab')2, MCSP D3 as analyte.
In experiment [6] the target is T2, cynomolgus MCSP D3. The description is as above.
Experiment [7] has as its target T1, hu-MCSP(D3 domain)-avi-his. The experiment can be described thus: SPR Biacore T200, 25 C; avidity: MCSP D3 captured via anti-Penta His, IgG as analyte. On the procedure: as §1
In experiment [8] the target is T2, cynomolgus MCSP D3. Described as above. Here is the method: as §1
Experiment [9] concerns the target T3, human CD3 expressed on Jurkat cells (human, UniProt P07766 23-207).
T3 construct: CD3 complex on Jurkat T cells; also called CD3 on Jurkat cells; huCD3
The experiment can be described thus: flow cytometry on Jurkat cells. Here is the method:
(§2) Binding of the different bispecific constructs to CD3 on Jurkat cells (ATCC #TIB-152), and the respective tumor antigen on target cells, was determined by FACS. Briefly, cells were harvested, counted and checked for viability. 0.15-0.2 million cells per well (in PBS containing 0.1% BSA; 90 μl) were plated in a round-bottom 96-well plate and incubated with the indicated concentration of the bispecific constructs and corresponding IgG controls (10 μl) for 30 min at 4° C. […] After the incubation, cells were centrifuged (5 min, 350×g), washed with 150 μl PBS containing 0.1% BSA, resuspended and incubated for further 30 min at 4° C. with 12 μl/well of a FITC- or PE-conjugated secondary antibody. Bound constructs were detected using a FACSCantoII (Software FACS Diva). The “(scFv)₂” molecule was detected using a FITC-conjugated anti-His antibody (Lucerna, #RHIS-45F-Z). For all other molecules, a FITC- or PE-conjugated AffiniPure F(ab′)2 Fragment goat anti-human IgG Fcγ Fragment Specific (Jackson Immuno Research Lab #109-096-098/working solution 1:20, or #109-116-170/working solution 1:80, respectively) was used. Cells were washed by addition of 120 μl/well PBS containing 0.1% BSA and centrifugation at 350×g for 5 min. A second washing step was performed with 150 μl/well PBS containing 0.1% BSA. […] EC50 values were calculated using the GraphPad Prism software.
As a control, the equivalent maximum concentration of the corresponding IgGs and the background staining due to the labeled 2ndary antibody (goat anti-human FITC-conjugated AffiniPure F(ab′)2 Fragment, FcγFragment-specific, Jackson Immuno Research Lab #109-096-098) were assessed as well.

Experiment [10] concerns the target T4, human MCSP expressed on tumor cells (Colo-38, WM266-4, A375, MV-3, HCT-116) (human, UniProt Q6UVK1 30-2322). Briefly: cell-based or functional assay.
Experiment [11] addresses T4, human MCSP expressed on tumor cells …. The experiment can be described thus: flow cytometry on WM266-4 cells. On the procedure: as §2

T4 sequence (Q6UVK1 30-2322): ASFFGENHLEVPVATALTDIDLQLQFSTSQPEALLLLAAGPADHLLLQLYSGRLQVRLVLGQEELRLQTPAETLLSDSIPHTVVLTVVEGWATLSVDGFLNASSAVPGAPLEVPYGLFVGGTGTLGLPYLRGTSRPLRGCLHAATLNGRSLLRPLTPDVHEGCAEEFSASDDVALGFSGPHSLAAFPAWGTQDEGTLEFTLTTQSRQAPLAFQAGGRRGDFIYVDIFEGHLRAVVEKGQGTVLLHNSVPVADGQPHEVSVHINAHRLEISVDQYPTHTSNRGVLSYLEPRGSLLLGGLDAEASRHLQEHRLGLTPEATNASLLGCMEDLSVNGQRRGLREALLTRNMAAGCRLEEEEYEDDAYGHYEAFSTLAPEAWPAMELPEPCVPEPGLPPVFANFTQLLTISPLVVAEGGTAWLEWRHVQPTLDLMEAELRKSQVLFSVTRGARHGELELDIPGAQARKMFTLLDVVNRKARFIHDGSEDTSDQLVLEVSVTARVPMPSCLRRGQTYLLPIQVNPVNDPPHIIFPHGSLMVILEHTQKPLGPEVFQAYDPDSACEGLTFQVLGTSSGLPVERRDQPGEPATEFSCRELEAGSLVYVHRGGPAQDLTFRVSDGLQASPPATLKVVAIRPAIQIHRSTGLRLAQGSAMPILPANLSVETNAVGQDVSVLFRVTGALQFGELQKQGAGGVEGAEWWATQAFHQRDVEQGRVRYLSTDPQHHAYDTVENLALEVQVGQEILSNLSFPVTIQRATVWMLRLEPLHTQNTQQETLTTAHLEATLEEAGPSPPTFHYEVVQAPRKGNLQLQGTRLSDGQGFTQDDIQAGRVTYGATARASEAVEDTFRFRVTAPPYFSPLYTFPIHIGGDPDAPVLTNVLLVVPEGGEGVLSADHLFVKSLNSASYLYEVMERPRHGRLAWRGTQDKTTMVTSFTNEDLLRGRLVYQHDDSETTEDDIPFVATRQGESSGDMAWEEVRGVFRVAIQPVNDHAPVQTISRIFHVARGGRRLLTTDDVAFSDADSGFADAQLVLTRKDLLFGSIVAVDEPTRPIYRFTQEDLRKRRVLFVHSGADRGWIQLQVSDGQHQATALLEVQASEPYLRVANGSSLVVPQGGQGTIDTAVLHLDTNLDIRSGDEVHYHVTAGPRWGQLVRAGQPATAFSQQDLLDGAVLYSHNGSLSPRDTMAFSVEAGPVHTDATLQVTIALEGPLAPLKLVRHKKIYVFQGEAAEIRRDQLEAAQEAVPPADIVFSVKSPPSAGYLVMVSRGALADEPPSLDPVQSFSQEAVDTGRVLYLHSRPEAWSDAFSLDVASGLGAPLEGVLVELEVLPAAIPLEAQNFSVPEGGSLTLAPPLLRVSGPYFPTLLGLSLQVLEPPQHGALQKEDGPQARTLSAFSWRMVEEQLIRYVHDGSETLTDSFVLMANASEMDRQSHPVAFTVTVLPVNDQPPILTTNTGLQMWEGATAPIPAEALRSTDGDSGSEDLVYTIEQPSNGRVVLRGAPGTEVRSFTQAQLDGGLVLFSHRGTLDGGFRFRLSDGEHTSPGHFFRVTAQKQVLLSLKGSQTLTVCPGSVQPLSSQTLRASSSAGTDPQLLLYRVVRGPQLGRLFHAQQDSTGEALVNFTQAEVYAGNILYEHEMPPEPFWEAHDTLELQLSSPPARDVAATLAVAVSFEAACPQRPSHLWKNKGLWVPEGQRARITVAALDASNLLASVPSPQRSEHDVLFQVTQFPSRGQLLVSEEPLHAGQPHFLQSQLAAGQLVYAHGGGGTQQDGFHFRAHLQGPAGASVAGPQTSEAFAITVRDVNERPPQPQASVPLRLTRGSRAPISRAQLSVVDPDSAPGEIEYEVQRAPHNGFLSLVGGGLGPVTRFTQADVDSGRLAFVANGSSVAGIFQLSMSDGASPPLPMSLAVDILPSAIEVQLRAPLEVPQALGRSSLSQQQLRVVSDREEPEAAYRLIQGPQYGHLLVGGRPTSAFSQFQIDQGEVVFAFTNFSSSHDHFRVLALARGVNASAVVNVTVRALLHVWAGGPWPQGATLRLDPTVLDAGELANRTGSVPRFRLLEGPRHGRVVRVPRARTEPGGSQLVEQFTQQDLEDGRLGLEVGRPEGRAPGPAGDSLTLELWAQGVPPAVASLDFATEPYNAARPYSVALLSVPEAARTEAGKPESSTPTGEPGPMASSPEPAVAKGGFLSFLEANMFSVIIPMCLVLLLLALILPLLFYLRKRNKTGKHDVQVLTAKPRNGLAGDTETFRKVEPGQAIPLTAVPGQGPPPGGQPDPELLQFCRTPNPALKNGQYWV
T3 sequence (P07766 23-207 limits assumed): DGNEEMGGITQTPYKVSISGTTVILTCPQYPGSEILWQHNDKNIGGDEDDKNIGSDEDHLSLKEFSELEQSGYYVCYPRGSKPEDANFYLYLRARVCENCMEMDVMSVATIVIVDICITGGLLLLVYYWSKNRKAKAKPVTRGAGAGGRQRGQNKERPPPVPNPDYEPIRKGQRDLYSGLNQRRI

B1: M4-3(C1)/ML2(C5) IgG (antibody, V domains shown)
VH: QVQLQESGPGLVKPSQTLSLTCTVSGGSITSGYYWNWIRQHPGKGLEWIGYITFDGSNNYNPSLKSRVTISRDTSKNQFSLKLSSVTAADTAVYYCADFDYWGQGTLVTVSS
VL: DIQMTQSPSSLSASVGDRVTITCRASRGIREYLNWYQQKPGKAPKLLIYYTGSLHSGVPSRFSGSGSGTDFTLTISSLQPEDFATYYCQQYSELPWTFGQGTKVEIK
notes: Human IgG1
With B1, the figures for the “Fold increase over parent” value (in experiment [1]; with cynomolgus MCSP D3 [2]) were 10 fold and 6.7 fold, respectively. The Kd in experiment [3] is 1.8 nM; in the experiment with cynomolgus MCSP D3 [4], 1.3 nM; in experiment [5] it was 0.2 nM; with cynomolgus MCSP D3 [6], 0.3 nM; in experiment [7], 0.0046 nM; with cynomolgus MCSP D3 [8] it was 0.0044 nM.

B2: M4-3(C1)/ML2(G3) IgG (antibody, V domains shown)
VH: QVQLQESGPGLVKPSQTLSLTCTVSGGSITSGYYWNWIRQHPGKGLEWIGYITFDGSNNYNPSLKSRVTISRDTSKNQFSLKLSSVTAADTAVYYCADFDYWGQGTLVTVSS
VL: DIQMTQSPSSLSASVGDRVTITCRASQGIRNYLNWYQQKPGKAPKLLIYYTSSLHSGVPSRFSGSGSGTDYTLTISSLQPEDFATYYCQQYSALPWTFGQGTKVEIKR
notes: Human IgG1
Regarding B2, the “Fold increase over parent” value in experiment [1] is 28.6 fold; in the experiment with cynomolgus MCSP D3 [2] it was 10 fold. Also, the Kd in [3] amounted to 1.8 nM; in the experiment with cynomolgus MCSP D3 [4], 1.4 nM; in experiment [5], 0.07 nM; with cynomolgus MCSP D3 [6], 0.2 nM; in experiment [7], 0.0045 nM; with cynomolgus MCSP D3 [8], 0.0038 nM.

B3: M4-3(C1)/ML2(E10) IgG (antibody, V domains shown)
VH: QVQLQESGPGLVKPSQTLSLTCTVSGGSITSGYYWNWIRQHPGKGLEWIGYITFDGSNNYNPSLKSRVTISRDTSKNQFSLKLSSVTAADTAVYYCADFDYWGQGTLVTVSS
VL: DIQMTQSPSSLSASVGDRVTITCRASYGIRGYLNWYQQKPGKAPKLLIYYTSSLHSGVPSRFSGSGSGTDFTLTISSLQPEDFATYHCQQYSKLPWTFGQGTKVEIK
notes: Human IgG1
As for B3, the “Fold increase over parent” value in [1] amounted to 4 fold; in the experiment with cynomolgus MCSP D3 [2], 3.3 fold. For the same molecule, the Kd was 4.6 nM in experiment [3]; 3.8 nM in the experiment with cynomolgus MCSP D3 [4]; 0.5 nM in experiment [5]; 0.6 nM in the experiment with cynomolgus MCSP D3 [6]; 0.0063 nM in experiment [7]; 0.0044 nM with cynomolgus MCSP D3 [8].

B4: 2 + 1 IgG Crossfab, inverted; CL/CH1 exchange (LC007/V9) (anti-MCSP/anti-huCD3) (bispecific antibody)
chain 1: DIVLTQSPSSLSASLGDRVTISCSASQGIRNYLNWYQQRPDGTVKLLIYYTSSLHSGVPSRFSGSGSGTDYSLTISNLEPEDIATYYCQQYSKLPWTFGGGTKLEIKRTVAAPSVFIFPPSDEQLKSGTASVVCLLNNFYPREAKVQWKVDNALQSGNSQESVTEQDSKDSTYSLSSTLTLSKADYEKHKVYACEVTHQGLSSPVTKSFNRGEC
chain 2: EVQLQESGPGLVKPSQSLSLTCSVTGYSITSGYYWNWIRQFPGNKLEWMGYITYDGSNNYNPSLKNRISITRDTSKNQFFLKLNSVTTEDTATYYCADFDYWGQGTTLTVSSASTKGPSVFPLAPSSKSTSGGTAALGCLVKDYFPEPVTVSWNSGALTSGVHTFPAVLQSSGLYSLSSVVTVPSSSLGTQTYICNVNHKPSNTKVDKKVEPKSCDKTHTCPPCPAPEAAGGPSVFLFPPKPKDTLMISRTPEVTCVVVDVSHEDPEVKFNWYVDGVEVHNAKTKPREEQYNSTYRVVSVLTVLHQDWLNGKEYKCKVSNKALGAPIEKTISKAKGQPREPQVCTLPPSRDELTKNQVSLSCAVKGFYPSDIAVEWESNGQPENNYKTTPPVLDSDGSFFLVSKLTVDKSRWQQGNVFSCSVMHEALHNHYTQKSLSLSPGK
chain 3: DIQMTQSPSSLSASVGDRVTITCRASQDIRNYLNWYQQKPGKAPKLLIYYTSRLESGVPSRFSGSGSGTDYTLTISSLQPEDFATYYCQQGNTLPWTFGQGTKVEIKSSASTKGPSVFPLAPSSKSTSGGTAALGCLVKDYFPEPVTVSWNSGALTSGVHTFPAVLQSSGLYSLSSVVTVPSSSLGTQTYICNVNHKPSNTKVDKKVEPKSC
chain 4: not shown
notes: also called 2+1 IgG Crossfab, inverted (V9)
For B4, the concentration for a half-maximal effect (EC50) in experiment [9] came to 6.1 nM. In addition, in experiment [10], the “EC50 [pM] of T cell-mediated killing (LDH release), MV-3 cells, human PBMCs E:T 10:1, about 24 h” value was determined as 4.1 pM and the “EC50 [pM] of T cell-mediated killing (LDH release), WM266-4 cells, human PBMCs E:T 10:1, about 24 h” value amounted to 3.7 pM. In experiment [11], this molecule displayed an EC50 of 0.57 nM.
